Experimental findings from publication PMC9089897 (2022) are described below.

Test [1] concerns the target T1, biotinylated avi-tagged SARS-CoV-2 (Wuhan) receptor binding domain (RBD) (SARS-CoV-2 (Wuhan strain), UniProt P0DTC2 319-541). The test can be described thus: BLI. (In general: BLI is a label-free optical method that tracks binding on a fibre tip over time.)
The target of test [2] is T1, biotinylated avi-tagged SARS-CoV-2 …. The test can be described thus: BLI. This is another data set of the same source.

B1: THSC20.HVTR04 (IgG) (antibody, V domains shown)
VH: QVQLVESGGGVVQPGRSLRLSCAASGFTFSNYAIHWVRQAPGKGLEWVAVVSYDGSNKYYAESVKGRFTISRDNSKNTLSLQMISLRPEDTAVYYCASVADTAMVPEWYFDLWGQGTMVTVSS
VL: QSVLTQPRSVSGSPGQSVTISCTGTSSDVGAYNYVSWYQQHPGKAPKLMIYDVSARPSGVPDRFSGSKSGNTASLTISGLQAEDEADYYCCSYAGSWVFGGGTKLTVL
By koff is commonly meant a measure of how fast the partners let go of each other. High values mean fast dissociation, low ones slow dissociation. In test [1], B1 registered an off-rate (koff) of 9.15e-05 s⁻¹.

B2: THSC20.HVTR26 (IgG) (antibody, V domains shown)
VH: EVQLVESGGGLVQPGGSLRLSCAASGFTVSSNYMSWVRQAPGKGLEWVSAIYSGDSTYYADSVKGRFTISRHNPKNTLYLQMNSLRAEDTAVYYCARLVGALTNIVVSGDGGAFDIWGQGTMVTVSS
VL: SYELTQPASVSGSPGQSITISCTGTSSDVGSYNLVSWYQQHPGKAPKLMIYEVSKRPSGVSNRFSGSKSGNTASLTISGLQAEDEVDYYCCSYAGSSTWVFGGGTKLTVL
What is called Kd is the equilibrium constant for the complex coming apart. Read a high Kd as lower affinity. Molecule B2 had an equilibrium dissociation constant (Kd) in test [2] of 255 pM. Besides, in test [1], the dissociation rate constant (koff) came to 0.000131 s⁻¹.
